Test results published in patent publication US20080219985A1.
Like-named read-outs stand apart in the source and are kept apart here.

Assays:
Test in all cases: cell-based or functional assay
[1] = biological target: GPCR73a receptor (human) (UniProt Q8TCW9)
[2] = biological target: GPCR73b receptor (Homo sapiens (Human)) (UniProt Q8NFJ6)
[3] = biological target: PROK2 receptor on Wky12-22 cells (rat aortic smooth muscle cells) (rat)
[4] = biological target: GPCR73a receptor (human) (UniProt Q8TCW9); remark: listed apart in the source
[5] = biological target: GPCR73b receptor (Homo sapiens (Human)) (UniProt Q8NFJ6); remark: listed apart in the source

GPCR73b receptor (Homo sapiens (Human)), sequence (Q8NFJ6 whole entry): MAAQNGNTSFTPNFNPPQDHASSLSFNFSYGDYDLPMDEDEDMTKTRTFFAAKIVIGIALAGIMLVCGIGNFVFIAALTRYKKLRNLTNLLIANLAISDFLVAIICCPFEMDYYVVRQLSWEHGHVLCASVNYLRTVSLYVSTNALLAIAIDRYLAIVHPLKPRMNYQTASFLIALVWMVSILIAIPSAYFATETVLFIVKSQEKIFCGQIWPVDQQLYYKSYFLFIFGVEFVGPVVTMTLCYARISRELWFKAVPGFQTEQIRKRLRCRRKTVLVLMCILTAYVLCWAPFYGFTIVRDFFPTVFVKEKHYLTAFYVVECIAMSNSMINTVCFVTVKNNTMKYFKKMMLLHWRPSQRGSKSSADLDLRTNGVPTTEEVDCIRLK
GPCR73a receptor (human), sequence (Q8TCW9 whole entry): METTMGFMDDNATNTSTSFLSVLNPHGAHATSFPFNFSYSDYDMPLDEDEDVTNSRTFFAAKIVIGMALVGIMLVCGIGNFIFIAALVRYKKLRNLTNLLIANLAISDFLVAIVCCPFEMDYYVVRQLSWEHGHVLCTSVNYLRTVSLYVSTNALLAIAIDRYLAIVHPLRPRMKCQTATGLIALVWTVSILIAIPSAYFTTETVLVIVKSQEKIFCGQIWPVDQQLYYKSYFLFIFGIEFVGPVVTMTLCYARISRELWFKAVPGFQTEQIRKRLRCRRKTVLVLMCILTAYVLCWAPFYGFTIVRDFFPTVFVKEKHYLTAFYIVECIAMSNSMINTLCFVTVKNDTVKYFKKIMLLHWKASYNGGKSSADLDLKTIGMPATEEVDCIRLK

- SRE-luciferase fold-induction at 1 ng/ml (fold-induction) [1]: 1.2
- SRE-luciferase fold-induction at 3.2 ng/ml (fold-induction) [1]: 1.6
- SRE-luciferase fold-induction at 10 ng/ml (fold-induction) [1]: 2.5
- SRE-luciferase fold-induction at 32 ng/ml (fold-induction) [1]: 5.8
- SRE-luciferase fold-induction at 100 ng/ml (fold-induction) [1]: 11.4
- SRE-luciferase fold-induction at 320 ng/ml (fold-induction) [1]: 24.4
- SRE-luciferase fold-induction at 1000 ng/ml (fold-induction) [1]: 20
- SRE-luciferase fold-induction at 1 ng/ml (fold-induction) [2]: 1.1
- SRE-luciferase fold-induction at 3.2 ng/ml (fold-induction) [2]: 1.3
- SRE-luciferase fold-induction at 10 ng/ml (fold-induction) [2]: 1.8
- SRE-luciferase fold-induction at 32 ng/ml (fold-induction) [2]: 2.8
- SRE-luciferase fold-induction at 100 ng/ml (fold-induction) [2]: 5.6
- SRE-luciferase fold-induction at 320 ng/ml (fold-induction) [2]: 8.3
- SRE-luciferase fold-induction at 1000 ng/ml (fold-induction) [2]: 8.4
- EC50 of GROα secretion from Wky12-22 cells [3]: 2.94 ng/mL
- SRE-luciferase fold-induction at 1 ng/ml (fold-induction) [4]: 0.95
- SRE-luciferase fold-induction at 3.2 ng/ml (fold-induction) [4]: 1.3
- SRE-luciferase fold-induction at 10 ng/ml (fold-induction) [4]: 2.6
- SRE-luciferase fold-induction at 32 ng/ml (fold-induction) [4]: 7.2
- SRE-luciferase fold-induction at 320 ng/ml (fold-induction) [4]: 20.5
- SRE-luciferase fold-induction at 1000 ng/ml (fold-induction) [4]: 15
- SRE-luciferase fold-induction at 3.2 ng/ml (fold-induction) [5]: 1.4
- SRE-luciferase fold-induction at 32 ng/ml (fold-induction) [5]: 2.7
- SRE-luciferase fold-induction at 100 ng/ml (fold-induction) [5]: 4.1
- SRE-luciferase fold-induction at 320 ng/ml (fold-induction) [5]: 5.8
- SRE-luciferase fold-induction at 1000 ng/ml (fold-induction) [5]: 6.1
B1: human PROK1 purchased from PeproTech (ligand)
chain: AVITGACERDVQCGAGTCCAISLWLRGLRMCTPLGREGEECHPGSHKVPFFRKRKHHTCPCLPNLLCSRFPDGRYRCSMDLKNINF
